The target in assay [1] is T1, USP33 DUSP2 domain, tag cleaved (for FP) (human, UniProt Q8TEY7 1-942).
T1 chain: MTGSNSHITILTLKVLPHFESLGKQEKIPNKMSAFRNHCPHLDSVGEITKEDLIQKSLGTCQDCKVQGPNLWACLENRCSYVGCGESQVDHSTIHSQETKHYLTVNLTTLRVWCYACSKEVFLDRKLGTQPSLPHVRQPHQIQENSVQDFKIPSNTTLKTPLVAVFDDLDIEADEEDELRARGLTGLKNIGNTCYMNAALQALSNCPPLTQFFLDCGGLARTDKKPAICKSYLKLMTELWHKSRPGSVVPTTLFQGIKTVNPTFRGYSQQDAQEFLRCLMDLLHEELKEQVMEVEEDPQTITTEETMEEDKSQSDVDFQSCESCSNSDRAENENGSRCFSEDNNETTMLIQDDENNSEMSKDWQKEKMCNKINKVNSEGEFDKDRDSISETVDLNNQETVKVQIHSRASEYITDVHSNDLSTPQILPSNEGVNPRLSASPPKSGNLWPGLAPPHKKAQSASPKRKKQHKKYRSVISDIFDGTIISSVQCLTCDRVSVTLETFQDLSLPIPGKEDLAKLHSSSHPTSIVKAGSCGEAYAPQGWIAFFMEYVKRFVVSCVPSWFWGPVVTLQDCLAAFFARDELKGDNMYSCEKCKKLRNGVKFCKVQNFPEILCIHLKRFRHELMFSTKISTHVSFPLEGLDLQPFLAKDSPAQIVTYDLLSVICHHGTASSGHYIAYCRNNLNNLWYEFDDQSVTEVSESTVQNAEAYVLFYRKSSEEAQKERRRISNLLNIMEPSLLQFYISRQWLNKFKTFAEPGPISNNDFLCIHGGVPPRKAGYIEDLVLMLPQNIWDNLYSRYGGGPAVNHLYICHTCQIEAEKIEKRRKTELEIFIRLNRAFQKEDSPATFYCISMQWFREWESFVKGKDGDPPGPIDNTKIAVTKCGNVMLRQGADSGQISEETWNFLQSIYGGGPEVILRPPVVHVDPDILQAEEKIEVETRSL
Description: FP.

Assay [2] addresses USP20 DUSP2 domain, tag cleaved (for FP) (human). Description: FP.
The target of assay [3] is T2, USP20 DUSP2 domain K833E/K835E (for FP) (human).
T2 chain: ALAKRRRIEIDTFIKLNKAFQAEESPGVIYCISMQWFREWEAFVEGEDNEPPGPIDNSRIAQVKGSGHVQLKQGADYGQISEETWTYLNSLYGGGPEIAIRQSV
Description: FP.

The target in assay [4] is T3, USP20 DUSP2 domain N805A (for FP) (human).
T3 chain: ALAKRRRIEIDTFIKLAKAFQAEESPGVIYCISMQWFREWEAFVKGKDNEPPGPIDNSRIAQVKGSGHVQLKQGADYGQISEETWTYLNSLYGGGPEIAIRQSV
Description: FP.

The target of assay [5] is T4, USP33 zf-UBP domain, tag cleaved (for FP) (human, UniProt Q8TEY7 1-942).
T4 chain: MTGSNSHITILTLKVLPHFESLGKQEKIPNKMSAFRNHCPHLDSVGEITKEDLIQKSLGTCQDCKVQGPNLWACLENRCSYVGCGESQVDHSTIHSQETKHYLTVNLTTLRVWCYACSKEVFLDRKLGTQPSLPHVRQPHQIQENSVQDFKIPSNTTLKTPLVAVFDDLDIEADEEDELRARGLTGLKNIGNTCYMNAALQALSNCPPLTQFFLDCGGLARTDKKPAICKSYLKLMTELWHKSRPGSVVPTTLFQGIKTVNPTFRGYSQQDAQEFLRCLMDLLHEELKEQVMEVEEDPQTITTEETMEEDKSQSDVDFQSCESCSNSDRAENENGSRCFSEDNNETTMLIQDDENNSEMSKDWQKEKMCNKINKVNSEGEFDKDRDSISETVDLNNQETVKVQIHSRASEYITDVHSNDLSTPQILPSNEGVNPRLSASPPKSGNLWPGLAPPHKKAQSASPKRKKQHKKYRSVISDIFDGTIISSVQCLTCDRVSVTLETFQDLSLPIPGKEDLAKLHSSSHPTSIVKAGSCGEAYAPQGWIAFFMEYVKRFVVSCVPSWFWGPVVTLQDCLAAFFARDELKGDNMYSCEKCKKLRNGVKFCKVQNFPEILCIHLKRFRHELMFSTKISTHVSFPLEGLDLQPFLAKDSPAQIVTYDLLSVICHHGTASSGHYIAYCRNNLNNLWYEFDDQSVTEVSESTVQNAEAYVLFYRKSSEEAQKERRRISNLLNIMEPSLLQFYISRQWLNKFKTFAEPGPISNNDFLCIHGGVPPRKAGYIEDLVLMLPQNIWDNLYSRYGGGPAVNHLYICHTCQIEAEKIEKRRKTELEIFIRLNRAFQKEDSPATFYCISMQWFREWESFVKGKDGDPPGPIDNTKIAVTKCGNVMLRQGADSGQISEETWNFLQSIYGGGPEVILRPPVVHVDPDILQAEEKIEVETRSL
Description: FP.

The target in assay [6] is USP20 zf-UBP domain, tag cleaved (for FP) (human). Description: FP.
Sequence of USP20 zf-UBP domain, tag cleaved (for FP) (human) (chain, as listed by the source): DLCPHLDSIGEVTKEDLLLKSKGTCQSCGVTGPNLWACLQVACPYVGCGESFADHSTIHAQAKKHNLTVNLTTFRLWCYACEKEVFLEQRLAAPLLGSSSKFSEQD
The next assay addresses T5, USP22 zf-UBP (Homo sapiens, UniProt Q9UPT9).
T5 chain: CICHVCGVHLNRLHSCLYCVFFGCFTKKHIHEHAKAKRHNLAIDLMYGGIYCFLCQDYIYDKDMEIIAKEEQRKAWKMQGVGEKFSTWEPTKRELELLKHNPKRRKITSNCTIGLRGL
Description: fluorescence polarization (direct for FITC probes, competitive otherwise).

The values that follow come from paper PMC13376213 (2026).

* marks the point of attachment. FITC = O=C1OC2(c3ccc(O)cc3Oc3cc(O)ccc32)c2ccc(NC(=S)*)cc21

As a reminder, the Kd is the concentration at which binding is half-saturated. Higher therefore signals lower affinity.

Ac-SDDDLAWNIAPQGLQ-NH2 [GPR137B_(348-362) peptide]: the Kd in assay [1] was over 200 µM; in assay [2], 10 µM.

Consider {FITC}-SDDDLAWNIAPQGLQ-NH2 [FITC-GPR137B 348-362], for which the Kd in assay [2] is 5 µM; in assay [3], over 290 µM; in assay [4], over 130 µM.

Turning to Ac-EKVKRRLDLDID-NH2 [CCP110_(582-593) peptide], the Kd in assay [5] is over 250 µM; in assay [6], over 500 µM.

Consider Ac-DVVDDFQLQHRHGPG-NH2 [MFSD2B_(395-409) peptide], for which the results for the Kd in assay [1] and in assay [2] were 0.8 µM and 45 µM, respectively.

As to VPSLDDFAGQSWSSWVE (FITC label on probe peptides (FITC- prefix)) [ATXN7L2_18-34], binding with USP22 zf-UBP was characterised by a dissociation constant (Kd) of 19.4 µM. This counts as double-digit micromolar.

In assay [2], Ac-PYIPMDKDFQLRSFDQLS-NH2 [HIF1A 564-581 D570K] returned a Kd of 19 µM.

In assay [2], Ac-PYIPMDDKFQLRSFDQLS-NH2 [HIF1A 564-581 D571K] displayed a dissociation constant Kd of 85 µM.

For Ac-PYIPMDDDFQARSFDQLS-NH2 [HIF1A 564-581 L574A], the Kd in assay [2] was 89 µM. This Kd and that of the molecule before are within 1.5-fold of each other.

As to Ac-PYIPMDDDFQLRSFDQLS-NH2 [HIF1A 564-581], binding in assay [2] was characterised by a dissociation constant (Kd) of 19 µM. Compared with the last molecule, the Kd is about 4.7-fold lower.

Take Ac-PYIPMDGEDFQLSPICPE-NH2 [HIF2A peptide 531-548]: the Kd in assay [1] is over 1000 µM; in assay [2], over 200 µM.

On to Ac-PFQPGRMALESQSPG-NH2 [USP19 874-888], for which the Kd in assay [5] was 41 µM. This lies in the double-digit micromolar range.

As to Ac-LQPSSKASLESTSDL-NH2 [CEP192 2073-2087], the figures for the Kd in assay [5] and in assay [6] were 14 µM and 37 µM, respectively.

In the case of Ac-QLEEELFQLRQGPAG-NH2 [CCDC88B_(947-961) peptide], the values for the equilibrium dissociation constant (Kd) in assay [1] and in assay [2] were 40 µM and 22 µM, respectively.

For the molecule LPSPEVMLGQSWNLWVE (FITC label on probe peptides (FITC- prefix)) [ATXN7], the Kd in the assay with USP22 zf-UBP was found to be 58.4 µM.

As to Ac-TNSSGKMALNSPQPG-NH2 [IRAG1 302-316], the Kd in assay [5] came to 8 µM; in assay [6], 9 µM.
